{
  "source": "paper PMC5354776",
  "key": {"[1]": {"target": "p150glued (UniProt Q14203)", "assay": "HA immunoprecipitation, p150glued immunoblot", "details": "reference: HA-EB1 wild type; sites S40,T154,T206"}, "[2]": {"target": "CLIP-170 (cytoplasmic linker protein 170) (UniProt P30622)", "assay": "HA immunoprecipitation, CLIP-170 immunoblot", "details": "reference: HA-EB1 wild type; sites S40,T154,T206"}},
  "data": [
    {"substance": "EB1 (end-binding protein 1) (from UniProt Q15691) HA-EB1 3A (S40A/T154A/T206A)", "values": [
      {"measurement": "binding against the reference", "setting": "[1]", "result": "weaker"},
      {"measurement": "binding against the reference", "setting": "[2]", "result": "weaker"}
    ]}
  ]
}
